Each block holds one substance with its values, some of them ahead of it.
Tests used:
Assay in all cases: liposome recruitment assay (liposome flotation, gel band quantification)
[1] = molecular target: Sec23–Sec24 complex (WT), P15303;P40482; conditions: GMP-PNP, 400 nm unilamellar liposomes, read off a plot
Sar1 = Sar1 (UniProt P20606); conditions: GMP-PNP; 400 nm unilamellar liposomes; parent: est. 0.98; read off a plot
[2] = molecular target: Sec13–Sec31 complex (WT), Q04491;P38968; conditions: GMP-PNP; 400 nm unilamellar liposomes; parent: est. 1.1; read off a plot

Sec23–Sec24 complex (WT), sequence (P15303 whole entry, stated change not applied, the tested form may be a part): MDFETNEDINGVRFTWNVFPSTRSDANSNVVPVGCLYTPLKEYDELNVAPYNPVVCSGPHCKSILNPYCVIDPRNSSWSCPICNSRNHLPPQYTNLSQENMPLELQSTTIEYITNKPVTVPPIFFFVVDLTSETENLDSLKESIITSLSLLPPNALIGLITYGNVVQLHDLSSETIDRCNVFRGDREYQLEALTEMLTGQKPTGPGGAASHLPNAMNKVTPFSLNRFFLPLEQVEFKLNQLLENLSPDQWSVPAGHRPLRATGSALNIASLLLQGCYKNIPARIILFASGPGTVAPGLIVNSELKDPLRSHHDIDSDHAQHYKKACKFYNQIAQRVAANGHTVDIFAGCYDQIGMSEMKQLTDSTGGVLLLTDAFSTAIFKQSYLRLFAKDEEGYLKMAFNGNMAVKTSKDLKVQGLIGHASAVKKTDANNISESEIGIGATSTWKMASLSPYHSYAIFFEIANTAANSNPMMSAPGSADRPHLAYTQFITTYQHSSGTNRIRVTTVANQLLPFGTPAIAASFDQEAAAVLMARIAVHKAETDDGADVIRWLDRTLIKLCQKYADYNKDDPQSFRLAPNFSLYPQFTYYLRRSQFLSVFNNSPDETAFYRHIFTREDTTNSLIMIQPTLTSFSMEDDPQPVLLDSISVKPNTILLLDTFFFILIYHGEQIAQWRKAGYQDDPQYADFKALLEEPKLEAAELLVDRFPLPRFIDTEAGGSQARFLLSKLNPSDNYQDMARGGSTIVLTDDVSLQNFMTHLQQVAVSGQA
Sec23–Sec24 complex (WT), sequence (P40482 whole entry, stated change not applied, the tested form may be a part): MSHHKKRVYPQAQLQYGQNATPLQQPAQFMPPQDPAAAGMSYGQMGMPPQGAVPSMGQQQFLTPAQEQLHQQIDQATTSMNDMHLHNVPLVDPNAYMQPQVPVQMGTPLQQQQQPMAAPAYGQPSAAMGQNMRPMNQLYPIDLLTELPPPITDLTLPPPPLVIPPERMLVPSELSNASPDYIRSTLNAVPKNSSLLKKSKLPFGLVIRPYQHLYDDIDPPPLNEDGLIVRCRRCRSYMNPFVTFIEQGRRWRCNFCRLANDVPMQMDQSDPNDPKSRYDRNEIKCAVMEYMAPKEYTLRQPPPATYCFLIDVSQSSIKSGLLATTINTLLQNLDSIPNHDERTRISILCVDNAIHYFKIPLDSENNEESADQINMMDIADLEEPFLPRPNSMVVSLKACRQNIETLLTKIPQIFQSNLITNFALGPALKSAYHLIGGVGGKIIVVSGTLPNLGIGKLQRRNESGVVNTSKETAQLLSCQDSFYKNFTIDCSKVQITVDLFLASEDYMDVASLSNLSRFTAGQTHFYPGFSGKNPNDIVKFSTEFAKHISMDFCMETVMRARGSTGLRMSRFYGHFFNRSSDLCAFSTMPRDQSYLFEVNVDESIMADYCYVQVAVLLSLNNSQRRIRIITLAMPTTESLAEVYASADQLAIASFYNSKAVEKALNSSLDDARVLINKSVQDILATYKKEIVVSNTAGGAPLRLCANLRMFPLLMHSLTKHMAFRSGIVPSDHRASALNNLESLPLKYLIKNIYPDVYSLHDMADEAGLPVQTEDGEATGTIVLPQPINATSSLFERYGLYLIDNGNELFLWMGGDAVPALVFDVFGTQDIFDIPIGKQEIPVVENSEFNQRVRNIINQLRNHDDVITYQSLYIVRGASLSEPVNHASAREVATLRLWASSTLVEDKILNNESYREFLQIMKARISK
Sec13–Nhis-Sec31 complex, sequence (Q04491 whole entry, stated change not applied): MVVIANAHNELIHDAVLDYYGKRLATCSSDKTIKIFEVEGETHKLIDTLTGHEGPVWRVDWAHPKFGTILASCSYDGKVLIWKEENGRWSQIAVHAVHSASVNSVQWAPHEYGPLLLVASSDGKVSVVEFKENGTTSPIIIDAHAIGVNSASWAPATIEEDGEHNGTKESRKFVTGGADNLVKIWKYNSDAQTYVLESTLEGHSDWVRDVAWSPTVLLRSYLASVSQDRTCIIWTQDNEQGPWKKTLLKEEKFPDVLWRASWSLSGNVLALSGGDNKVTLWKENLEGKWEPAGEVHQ
Sec13–Nhis-Sec31 complex, sequence (P38968 whole entry, stated change not applied): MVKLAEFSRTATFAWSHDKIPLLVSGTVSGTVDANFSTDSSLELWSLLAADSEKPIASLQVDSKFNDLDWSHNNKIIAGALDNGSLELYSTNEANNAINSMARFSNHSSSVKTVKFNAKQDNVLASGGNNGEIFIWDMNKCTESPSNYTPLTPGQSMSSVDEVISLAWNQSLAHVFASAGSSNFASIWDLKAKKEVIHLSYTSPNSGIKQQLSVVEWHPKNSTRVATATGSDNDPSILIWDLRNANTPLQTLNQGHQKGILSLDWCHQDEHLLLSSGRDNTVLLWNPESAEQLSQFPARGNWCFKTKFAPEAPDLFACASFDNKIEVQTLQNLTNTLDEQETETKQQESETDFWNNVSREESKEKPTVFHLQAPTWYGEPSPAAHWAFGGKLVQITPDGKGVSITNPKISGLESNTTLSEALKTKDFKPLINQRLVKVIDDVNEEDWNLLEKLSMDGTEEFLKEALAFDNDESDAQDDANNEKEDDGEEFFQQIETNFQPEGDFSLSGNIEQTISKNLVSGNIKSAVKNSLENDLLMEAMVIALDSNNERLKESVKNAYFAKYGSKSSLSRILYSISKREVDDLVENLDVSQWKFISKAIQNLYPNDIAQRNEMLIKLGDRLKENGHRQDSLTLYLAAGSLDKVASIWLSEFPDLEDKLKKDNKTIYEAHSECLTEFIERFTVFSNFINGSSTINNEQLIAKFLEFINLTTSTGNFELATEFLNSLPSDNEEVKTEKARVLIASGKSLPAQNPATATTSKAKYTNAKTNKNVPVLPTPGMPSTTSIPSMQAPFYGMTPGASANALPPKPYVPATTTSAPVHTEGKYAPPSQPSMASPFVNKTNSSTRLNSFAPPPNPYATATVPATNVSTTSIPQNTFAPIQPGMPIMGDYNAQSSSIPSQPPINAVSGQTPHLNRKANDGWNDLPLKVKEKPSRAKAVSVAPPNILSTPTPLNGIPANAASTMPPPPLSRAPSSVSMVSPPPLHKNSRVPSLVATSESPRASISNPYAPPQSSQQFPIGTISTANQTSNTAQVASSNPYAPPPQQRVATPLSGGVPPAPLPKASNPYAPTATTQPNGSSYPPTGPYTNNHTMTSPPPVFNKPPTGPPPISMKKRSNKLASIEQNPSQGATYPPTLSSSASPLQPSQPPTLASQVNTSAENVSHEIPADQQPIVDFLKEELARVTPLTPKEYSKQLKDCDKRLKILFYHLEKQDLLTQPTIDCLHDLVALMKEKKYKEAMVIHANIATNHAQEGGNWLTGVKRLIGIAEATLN
Sec13–Sec31 complex (WT), sequence (Q04491 whole entry, stated change not applied): as the sequence (Q04491 whole entry, stated change not applied) above
Sec13–Sec31 complex (WT), sequence (P38968 whole entry, stated change not applied): as the sequence (P38968 whole entry, stated change not applied) above
Sar1, sequence (P20606 whole entry): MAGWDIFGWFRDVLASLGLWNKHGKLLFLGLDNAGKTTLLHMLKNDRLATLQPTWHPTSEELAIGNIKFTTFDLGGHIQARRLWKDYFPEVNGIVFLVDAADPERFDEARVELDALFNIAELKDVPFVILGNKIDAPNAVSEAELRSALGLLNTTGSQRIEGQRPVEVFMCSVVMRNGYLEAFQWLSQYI

- other: Ratio Sec31:Sec23 ([1]; parent: est. 0.91): 0.91
Substance: Sec13–Nhis-Sec31 complex (from UniProt Q04491;P38968) ΔPPP (glycine/serine substitution of all six PPP motifs plus an additional PPAP motif; residues not printed)

- other: Ratio Sec31:Sec23 ([1]; parent: est. 1.1): 1.2
Substance: Sec13–Sec31 complex (WT) (from UniProt Q04491;P38968) ΔPPP (glycine/serine substitution of all six PPP motifs plus an additional PPAP motif; residues not printed)

- other: Protein ratio Sec23:Sar1 (Sar1): 1.1
- other: Protein ratio Sec31:Sec23 [2]: 0.43
Substance: Sec23–Sec24 complex (WT) (from UniProt P15303;P40482) Δcharge (charge reversal of a negatively charged surface adjacent to the gelsolin domain of Sec23; residues not printed)

From paper PMC7594496
